Laboratory results published in patent publication US20240124607A1 (Merck Sharp & Dohme, published 2024).
Substitutions are numbered along the chain they refer to.

T1: human CEACAM1 on Ba/F3 cells (human, UniProt P13688 35-526)
T1 construct: whole, on cells
T1 sequence (looked up): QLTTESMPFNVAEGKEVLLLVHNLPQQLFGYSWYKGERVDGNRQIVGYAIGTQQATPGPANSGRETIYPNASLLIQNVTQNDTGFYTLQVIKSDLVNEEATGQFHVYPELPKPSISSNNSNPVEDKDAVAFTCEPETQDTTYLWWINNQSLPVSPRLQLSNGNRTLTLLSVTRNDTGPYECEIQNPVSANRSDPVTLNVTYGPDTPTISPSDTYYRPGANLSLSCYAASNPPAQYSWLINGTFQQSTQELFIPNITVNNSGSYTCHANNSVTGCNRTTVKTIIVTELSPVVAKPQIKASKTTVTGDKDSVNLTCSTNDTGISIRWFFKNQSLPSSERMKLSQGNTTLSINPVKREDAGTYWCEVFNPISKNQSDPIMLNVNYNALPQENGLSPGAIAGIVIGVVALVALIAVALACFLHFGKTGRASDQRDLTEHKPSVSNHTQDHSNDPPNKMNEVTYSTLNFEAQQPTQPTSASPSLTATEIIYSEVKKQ

T2: Human CEACAM1 (human, UniProt P13688 35-428, limits assumed)
T2 sequence (looked up): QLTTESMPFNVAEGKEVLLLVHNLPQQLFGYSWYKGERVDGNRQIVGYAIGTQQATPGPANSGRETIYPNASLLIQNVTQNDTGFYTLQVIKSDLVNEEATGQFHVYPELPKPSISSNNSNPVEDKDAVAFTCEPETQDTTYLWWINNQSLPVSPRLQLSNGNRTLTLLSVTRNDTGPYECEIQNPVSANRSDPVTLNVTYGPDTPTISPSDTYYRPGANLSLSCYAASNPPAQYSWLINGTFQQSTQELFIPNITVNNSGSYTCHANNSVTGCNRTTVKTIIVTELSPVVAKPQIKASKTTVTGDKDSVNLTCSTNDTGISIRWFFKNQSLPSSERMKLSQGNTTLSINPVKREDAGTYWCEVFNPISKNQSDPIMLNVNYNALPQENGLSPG

T3: human CEACAM5 on cells (human, UniProt P06731 35-685)
T3 construct: tumour cell lines with endogenous CEACAM5, or B16F10 engineered to express hCEACAM5; also called CEACAM5 on MKN-45, HPAF-II, SK-CO-1, LoVo, BxPC-3, Kato-III, LS-174T, ZR-75-30; hCEACAM5-B16F10
T3 sequence: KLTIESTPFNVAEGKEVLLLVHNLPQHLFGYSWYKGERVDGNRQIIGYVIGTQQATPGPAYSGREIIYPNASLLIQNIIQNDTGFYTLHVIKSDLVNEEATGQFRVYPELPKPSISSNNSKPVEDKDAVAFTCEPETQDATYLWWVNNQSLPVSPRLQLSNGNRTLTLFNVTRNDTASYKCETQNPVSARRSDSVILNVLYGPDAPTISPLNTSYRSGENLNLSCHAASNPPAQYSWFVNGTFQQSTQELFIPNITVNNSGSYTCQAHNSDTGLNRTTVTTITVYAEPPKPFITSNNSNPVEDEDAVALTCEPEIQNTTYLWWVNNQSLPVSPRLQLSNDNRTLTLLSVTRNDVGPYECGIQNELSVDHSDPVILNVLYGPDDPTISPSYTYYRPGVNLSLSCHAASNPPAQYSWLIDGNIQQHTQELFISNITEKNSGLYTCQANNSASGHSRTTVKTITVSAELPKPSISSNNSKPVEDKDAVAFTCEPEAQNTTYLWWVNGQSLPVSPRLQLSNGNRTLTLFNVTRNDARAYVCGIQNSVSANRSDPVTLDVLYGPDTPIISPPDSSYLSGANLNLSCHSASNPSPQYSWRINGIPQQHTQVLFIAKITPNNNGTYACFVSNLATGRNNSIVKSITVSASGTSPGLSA

B1: AB0621 F3' CEACAM5 TriNKET (bispecific antibody, human IgG1, kappa)
chain: DIVMTQSPDSLAVSLGERATINCKSSHSLLYGNFQNNYLAWYQQKPGQPPKLLIYWASTRESGVPDRFSGSGSGTDFTLTISSLQAEDVAVYYCQQYYSYPYTFGCGTKLEIKGGGGSGGGGSGGGGSGGGGSQVQLVQSGAEVKKPGASVKVSCKASGYTFTAYTIHWVRQAPGQCLEWMGYINPSSGYTEYNQKFKDRTTLTADTSISTAYMELSRLRSDDTAVYYCTREGGLLWFDYWGQGTLVTVSSGSDKTHTCPPCPAPELLGGPSVFLFPPKPKDTLMISRTPEVTCVVVDVSHEDPEVKFNWYVDGVEVHNAKTKPREEQYNSTYRVVSVLTVLHQDWLNGKEYKCKVSNKALPAPIEKTISKAKGQPREPRVYTLPPCRDELTKNQVSLTCLVKGFYPSDIAVEWESNGQPENNYKTTPPVLVSDGSFTLYSKLTVDKSRWQQGNVFSCSVMHEALHNHYTQKSLSLSPG
heavy: EVQLVESGGGLVKPGGSLRLSCAASGFTFSSYSMNWVRQAPGKGLEWVSSISSSSSYIYYADSVKGRFTISRDNAKNSLYLQMNSLRAEDTAVYYCARGAPIGAAAGWFDPWGQGTLVTVSSASTKGPSVFPLAPSSKSTSGGTAALGCLVKDYFPEPVTVSWNSGALTSGVHTFPAVLQSSGLYSLSSVVTVPSSSLGTQTYICNVNHKPSNTKVDKKVEPKSCDKTHTCPPCPAPELLGGPSVFLFPPKPKDTLMISRTPEVTCVVVDVSHEDPEVKFNWYVDGVEVHNAKTKPREEQYNSTYRVVSVLTVLHQDWLNGKEYKCKVSNKALPAPIEKTISKAKGQPREPQVCTLPPSRDELTENQVSLTCLVKGFYPSDIAVEWESNGQPENNYKTTPPVLDSDGSFFLYSWLTVDKSRWQQGNVFSCSVMHEALHNHYTQKSLSLSPG
light: DIQMTQSPSSVSASVGDRVTITCRASQGISSWLAWYQQKPGKAPKLLIYAASSLQSGVPSRFSGSGSGTDFTLTISSLQPEDFATYYCQQGVSFPRTFGGGTKVEIKRTVAAPSVFIFPPSDEQLKSGTASVVCLLNNFYPREAKVQWKVDNALQSGNSQESVTEQDSKDSTYSLSSTLTLSKADYEKHKVYACEVTHQGLSSPVTKSFNRGEC
B2: AB0411 F3' CEACAM5 TriNKET (bispecific antibody, human IgG1, kappa)
chain: DIQLTQSPATLSVSPGERATLSCRASQSVSSSYLAWYQQKPGQAPRLLIYGASSRATGIPDRFSGSGSGTDFTLTISRLEPEDFAVYYCQQYNNWPLTFGCGTKVEIKGGGGSGGGGSGGGGSGGGGSQVQLVQSGGGLVQPGGSLRLSCAASGFTFTSYAMSWVRQAPGKCLEWVSAISGTGDSTFYADSVKGRFTFSRDNSKNTLYLQMNSLRAEDTAVYYCAKDLGWLQYGLFDYWGQGTLVTVSSGSDKTHTCPPCPAPELLGGPSVFLFPPKPKDTLMISRTPEVTCVVVDVSHEDPEVKFNWYVDGVEVHNAKTKPREEQYNSTYRVVSVLTVLHQDWLNGKEYKCKVSNKALPAPIEKTISKAKGQPREPRVYTLPPCRDELTKNQVSLTCLVKGFYPSDIAVEWESNGQPENNYKTTPPVLVSDGSFTLYSKLTVDKSRWQQGNVFSCSVMHEALHNHYTQKSLSLSPG
heavy: B1 heavy
light: B1 light
B3: AB0264 F3' CEACAM5 TriNKET (bispecific antibody, human IgG1, kappa)
chain: B1 chain with S210P
heavy: B1 heavy
light: B1 light

What was measured:
[1] = target: T1, human CEACAM1 on Ba/F3 cells; experiment: flow cytometry on Ba/F3 cells expressing human CEACAM1, fold over background (FOB), 5-fold dilutions from 1600 nM
Description: (§1) To examine the binding specificity of the TriNKETs to CEACAM5 compared to other CEACAM family members, Ba/F3 cells were engineered to express one of human CEACAM1, CEACAM6, CEACAM8, or cynomolgus CEACAM5. CEACAM5 TriNKETs were evaluated by flow cytometry starting at 1600 nM followed by 7 5-fold dilutions.

[2] = target: T2, Human CEACAM1; experiment: SPR, 37C, pH 7.4
Description: To determine the affinity and cross-reactivity of CEACAM5 TriNKET molecules, AB0411, AB0466, or AB0621 TriNKETs were captured using an anti-human Fc capture antibody (Cytiva, #BR100839) immobilized onto a Biacore CM5 standard surface sensor chip following manufacturer instructions. Human or cynomolgus CEACAM5 were titrated over captured AB0411, AB0466, and AB0621 as 2-fold serial dilutions starting from 300 nM. Association was monitored for 300 sec and dissociation was monitored for 600 sec. The assay was run at 37° C. at pH 7.4 and 6.0. The surface of the CM5 chip was regenerated with 10 mM glycine pH 1.5 for 20 sec at 100 μL/min.
Binding to human and cynomolgus CEACAM1, 6, and 8 was assessed by SPR using the same protocol as for CEACAM5 but using up to 600 and 1200 nM for titration of each protein. There were no detectable binding signals at these concentrations for AB0621. In contrast, reproducible weak binding signals were detected for AB0411 and AB0466, but these two TriNKETs also bound to different epitope(s) on the N-terminus of CEACAM5. Typical weak binding sensorgrams for AB0411 and AB0466 against human CEACAM1 and 6 indicated weak but notable signals compared to AB0621. […]

[3] = target: T4, cynomolgus CEACAM5 on Ba/F3 cells (cynomolgus monkey); experiment: flow cytometry on Ba/F3 cells expressing cynomolgus CEACAM5, fold over background (FOB), 5-fold dilutions from 1600 nM
T4 construct: whole, on cells
Description: as §1

[4] = target: T3, human CEACAM5 on cells; experiment: flow cytometry, LoVo cells

Row | Binder | binding result [1] | binding result [2] | EC50 (read off the curve) [3] [nM] | EC50 [4] [nM] | Max FOB [4] [fold over background]
1 | B1 | no binding (tested: 1600 nM) | no binding (tested: up to 600 and 1200 nM) | ~50 |  | 
2 | B2 |  |  |  | 3.25 | 19
3 | B3 | no binding (tested: 1600 nM) | no binding (tested: up to 600 and 1200 nM) | ~40 | 22.1 | 14
